Assay results reported in US20070036810A1, “Cyclic amp response element activator proteins and uses related thereto” (priority 2003, published 2007).
Blank lines part the entries; values can stand above or below the molecule they belong to.

Experiments:
human IL-8 promoter = experiment: pGL2-IL-8p-Luc reporter inducibility in HEK 293 cells; format: cell-based; conditions: expression construct co-transfected into HEK 293 cells, 48 hours post transfection
Procedure: A luciferase reporter controlled by a 1.5 kB IL-8 promoter containing fragment of human IL-8 promoter was tested for inducibility by known regulators of cytokine-mediated gene expression. pNF-κB-Luc (BD Biosciences) and pGL2-IL-8p-Luc reporters were co-transfected into HEK 293 cells with expression constructs encoding known activators of the NF-κB pathway, truncated MEKK (AA 360-672) (Stratagene) and a full length TRAF6 cDNA made according to conventional methods using a proprietary clone collection. Cells co-transfected with empty pCMV-Sport6 vector were either left untreated or treated with TNFα (50 ng/ml, for 16 hours). Luciferase activity was measured 48 hours post transfection. The pNF-κB-Luc reporter was used as a positive control.

[1] = tested on: CRE-like element of IL-8 promoter (pCREL-Luc); experiment: pCREL-Luc reporter (concatamerized CRE-like site) assay; format: cell-based; conditions: minimal promoter carrying concatamerized CRE-like site; data not shown
Excerpt: The pIL-8Luc reporter was constructed by insertion of the −1491 to +43 region of the human IL-8 gene into pGL3Basic vector (Promega, Inc). PCR was used to generate a wild type minimal IL-8 promoter as well as point mutants. Mutations in AP-1, C/EBP, NF-κB were as described by Wu et al. (Wu et al. J. Biol. Chem., 272:2396-2403 (1997)). The sequence of a putative CRE-like site TGACATAA was mutated to TCGATCAA. Promoter constructs carrying 6 concatamerised copies of CRE-like response element (pCREL-Luc) or 5 copies of CRE-like element TGACACAA found in human PEPCK and CAPL promoters (pCREL2-Luc) were prepared by ligating PCR amplified sequences into pTAL-Luc (BD Biosciences). All techniques were performed using conventional methods.
In order to determine if the “CRE-like element” was directly responsive to CREAP1 or MAP3K11, the ability of both genes to activate a minimal promoter carrying concatamerized CRE-like site (pCREL-Luc) was examined. In addition, we studied the effect of PMA known inducer of AP-1.

[2] = tested on: secreted IL-8 protein from HeLa cells; experiment: IL-8 Elisa assay in HeLa cells; format: cell-based; conditions: after transfection
Procedure: HeLa cells are transfected with DNA samples selected from the group of sequence verified and confirmed hits at 100 ng per well in 96 well plates (Costar) using the protocol described above. DNA samples designated as co-activators are co-transfected at 25 ng per well. Empty vector pCMV-Sport6 is used as a negative control. 72 hours post-transfection IL-8 content is measured in the cell growth media in prediluted aliquots corresponding to 1 to 5 μl of conditioned growth media using an IL-8 Elisa kit (Sigma) following the provided protocol. As a positive control, growth media is collected from the cells transfected with empty vector and treated with IL-1β and TNFα (R&D Systems) at 5 ng/ml and 50 ng/ml respectively for 16 hours prior to collection of the growth media for the IL-8 assay.

[3] = biological target: T1, ATF2-GAL4 fusion molecule (Homo sapiens, UniProt P15336); experiment: In vivo kinase assay, ATF2-GAL4 fusion in HLR cells; format: cell-based; conditions: 40 hours after transfection
T1 construct: host or cells: HLR cell line (5x GAL4 element-luciferase reporter)
Procedure: For in vivo kinase assay, activation domains of CREB or ATF2 transcription factors fused with the yeast GAL4 DNA binding domain (1-147 Amino Acids) constructs are used (Stratagene, PathDetect In Vivo Signal Transduction Pathway trans-reporting Systems). The HLR cell line that contains a 5× GAL4 DNA binding element and TATA box driving luciferase reporter is used per manufacturer's protocol (Stratagene). 10^4 HLR cells are split into each well of 96 well tissue culture plates. After 16 hours, cells are transfected with 100 ng of Creb-GAL4 or ATF2-GAL4 fusion constructs, 30 ng of Renilla luciferase control plasmid together with 100 ng of pCMVSPORT6, pCMVSPORT-CREAP1, pFC-PKA or pFC-MEKK (Stratagene) activator plasmids respectively. Transfection is done with Fugene6 reagent (Roche Molecular Biochemicals, Basel, Switzerland) according to the manufacturers manual. Forty hours after transfection, a Dual-Glo Luciferase assay (Promega) is conducted using the manufacturer's protocol.
As CREAP1 strongly activates CRE promoter transcription, we next investigated whether CREAP1 works through the CREB pathway. […]

[4] = tested on: Drosophila CRE (CRE-hsp-Luc reporter); experiment: CRE-hsp-Luc reporter assay in Drosophila S2 cells; format: cell-based, Drosophila melanogaster; conditions: 48 hours post-transfection
Excerpt: The amplified product was inserted into the Drosophila P-element transformation vector, pUAST (Brand and Perrimon, Development 118:401-415 (1993)). The final construct pUAS-dCREAP was used for transfection experiments in Drosophila melanogaster Schneider cells (S2). A firefly luciferase reporter was created which contained 4 copies of the drosophila CRE enhancer element (SEQ ID 39) (Eresh, S. et. Al. EMBO J. 16:2014-2022 (1997)) followed by hsp70 minimal promoter.
The S2 cells were transfected in 6 well plates (Costar) by the CaPO4 method (Bunch, T. and Goldstein, L. Nucleic Acids Res. 17:9761-9782 (1989)). A total of 25 ug of DNA was transfected into a 6-well dish containing 4 mls of cells (˜1×10^6 cells/ml). The transfection mix was removed after 18 hr and the luciferase assays were performed 48 hrs later. The UAS-transgenes were activated by co-transfection with the Actin promoter-Gal4 plasmid provided by Dr. Norbert Perrimon. The transfection efficiency was normalized co-transfection with hsp^mln Renilla luciferase driven by minimal heat shock promoter (made according to conventional methods). Luciferase activity was measured using the Dual-luciferase assay kit (Promega). […] Data were calculated as fold induction compared to the reporter gene's activity measured in the cells designated as negative control.

T1 sequence (P15336 with tags, fused parts or gaps limits assumed): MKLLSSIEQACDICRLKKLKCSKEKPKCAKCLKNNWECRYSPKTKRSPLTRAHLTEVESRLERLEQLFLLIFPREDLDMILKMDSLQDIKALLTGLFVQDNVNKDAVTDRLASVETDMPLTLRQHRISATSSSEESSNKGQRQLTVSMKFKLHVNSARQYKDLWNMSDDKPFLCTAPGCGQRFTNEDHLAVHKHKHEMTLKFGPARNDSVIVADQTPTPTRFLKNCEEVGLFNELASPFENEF

B1: TRAF6: full length TRAF6 cDNA expression construct; TNF receptor-associated factor 6 (protein, UniProt Q9Y4K3 1-522, looked up)
chain: MSLLNCENSCGSSQSESDCCVAMASSCSAVTKDDSVGGTASTGNLSSSFMEEIQGYDVEFDPPLESKYECPICLMALREAVQTPCGHRFCKACIIKSIRDAGHKCPVDNEILLENQLFPDNFAKREILSLMVKCPNEGCLHKMELRHLEDHQAHCEFALMDCPQCQRPFQKFHINIHILKDCPRRQVSCDNCAASMAFEDKEIHDQNCPLANVICEYCNTILIREQMPNHYDLDCPTAPIPCTFSTFGCHEKMQRNHLARHLQENTQSHMRMLAQAVHSLSVIPDSGYISEVRNFQETIHQLEGRLVRQDHQIRELTAKMETQSMYVSELKRTIRTLEDKVAEIEAQQCNGIYIWKIGNFGMHLKCQEEEKPVVIHSPGFYTGKPGYKLCMRLHLQLPTAQRCANYISLFVHTMQGEYDSHLPWPFQGTIRLTILDQSEAPVRQNHEEIMDAKPELLAFQRPTIPRNPKGFGYVTFMHLEALRQRTFIKDDTLLVRCEVSTRFDMGSLRREGFQPRSTDAGV
modifications: full-length
- increase of IL-8 promoter-reporter activity (human IL-8 promoter): 4.9 times

B2: MAP3K11: Mitogen-Activated Protein Kinase Kinase Kinase 11 expression construct, AP-1 activator (protein, UniProt Q16584 1-847, looked up)
Mitogen-activated protein …: MEPLKSLFLKSPLGSWNGSGSGGGGGGGGGRPEGSPKAAGYANPVWTALFDYEPSGQDELALRKGDRVEVLSRDAAISGDEGWWAGQVGGQVGIFPSNYVSRGGGPPPCEVASFQELRLEEVIGIGGFGKVYRGSWRGELVAVKAARQDPDEDISVTAESVRQEARLFAMLAHPNIIALKAVCLEEPNLCLVMEYAAGGPLSRALAGRRVPPHVLVNWAVQIARGMHYLHCEALVPVIHRDLKSNNILLLQPIESDDMEHKTLKITDFGLAREWHKTTQMSAAGTYAWMAPEVIKASTFSKGSDVWSFGVLLWELLTGEVPYRGIDCLAVAYGVAVNKLTLPIPSTCPEPFAQLMADCWAQDPHRRPDFASILQQLEALEAQVLREMPRDSFHSMQEGWKREIQGLFDELRAKEKELLSREEELTRAAREQRSQAEQLRRREHLLAQWELEVFERELTLLLQQVDRERPHVRRRRGTFKRSKLRARDGGERISMPLDFKHRITVQASPGLDRRRNVFEVGPGDSPTFPRFRAIQLEPAEPGQAWGRQSPRRLEDSSNGERRACWAWGPSSPKPGEAQNGRRRSRMDEATWYLDSDDSSPLGSPSTPPALNGNPPRPSLEPEEPKRPVPAERGSSSGTPKLIQRALLRGTALLASLGLGRDLQPPGGPGRERGESPTTPPTPTPAPCPTEPPPSPLICFSLKTPDSPPTPAPLLLDLGIPVGQRSAKSPRREEEPRGGTVSPPPGTSRSAPGTPGTPRSPPLGLISRPRPSPLRSRIDPWSFVSAGPRPSPLPSPQPAPRRAPWTLFPDSDPFWDSPPANPFQGGPQDCRAQTKDMGAQAPWVPEAGP
- activation of pCREL-Luc [1]: neither by MAP3K11
- accumulation of secreted IL-8 protein [2]: induced small increases

- stimulation of ATF2 fusion [3]: more than 100 fold
B3: MEKK: truncated MEKK (AA 360-672) expression construct (Stratagene), known activator of the NF-κB pathway (protein, UniProt Q13233 360-672, looked up, fragment)
chain: FVMLRVFQLEPSDPMLWRKTLKNFEVESLFQKYHSRRSSRIKAPSRNTIQKFVSRMSNSHTLSSSSTSTSSSENSIKDEEEQMCPICLLGMLDEESLTVCEDGCRNKLHHHCMSIWAEECRRNREPLICPLCRSKWRSHDFYSHELSSPVDSPSSLRAAQQQTVQQQPLAGSRRNQESNFNLTHYGTQQIPPAYKDLAEPWIQVFGMELVGCLFSRNWNVREMALRRLSHDVSGALLLANGESTGNSGGSSGSSPSGGATSGSSQTSISGDVVEACCSVLSMVCADPVYKVYVAALKTLRAMLVYTPCHSLAE
- increase of IL-8 promoter-reporter activity (human IL-8 promoter): 16 times

B4: dCREAP: Drosophila CREAP gene product, 797 amino acids, SEQ ID NO 27; expressed from pUAS-dCREAP (protein)
chain: MANPRKFSEKIALQKQKQAEGTAEFERIMKEVYATKRDEPPANQKILDGLVGGQEVSQSSPGAGNGTGGGGSGSGSGASGGGASPDGLGGGGGSPTAYRESRGRSVGVGPMRRPSERKQDRSPYGSSSTQQTLDNGQLNPHLLGPPTAESLWRRSSSDSALHQSALVAGFNSDVNSMGANYQQQQHQQQQQPGQPRSHSPHHGINRTMSPQAQRRKSPLLQPHQLQLQQLQQQQQQMQHQHQLHQQLQMQQLQQHQQQHQQQQQQQNTPYNNAKFTNPVFRPLQDQVNFANTGSLPDLTALQNYGPQQQQQQSQQQPSQQQQQLQQTLSPVMSPHNHRRERDQSPSPFSPAGGGGGAGPGSPYQQQQHSPTGNTQQQQQQHQQPSNSPHLSFTNLATTQAAVTTFNPLPTLGPHNATDYRQPPNPPSPRSSPGLLSSVSATDLHSSAPASPIRQQQQAHQQQQQQQQAQQQQQQFDNSYNSLNTSFHNQFEIFSLGDSNSSPEQQGFANNFVALDFDDLSGGGGGGPSGGGGSNGGGLTNGYNKPEMLDFSELSGSPEASGNNNHMRRGVSNLNNNGLSNGVVGSTHNGSTNLNGAGNNNSSSGGGTAQDPLGITTSPVPSPLGCPSSPLPIPIPMSAQSSPQQQHHHHQQQQQQHHQQQHHQQQQLSLSLHHSPHHSPMHSPHHGNSPLSSSSPVSHNACSNSNVVMNHQQQQQQHHHQQHHHQGSSQSHTPTTANIPSIIFSDYSSNADYTREIFDSLDLDLGQMDVAGLQMLSDQNPIMIADPNIEDSFRRDLN
modifications: drosophila melanogaster
- Fold Activation ([4]; CRE-hsp-Luc reporter (4 copies of Drosophila CRE)): 136.04
- Fold Activation ([4]; hsp-Luc reporter without CRE): 0.96
